Source: patent publication US20220047715A1, “FORCE-DEPENDENT DRUG RELEASE SYSTEM TO ENHANCE SELECTIVE KILLING AND MINIMIZE ADVERSE EFFECTS IN CANCER TREATMENT” (THE JOHNS HOPKINS UNIVERSITY, priority 2018, published 2022)

What was measured:
CTLA4-CD80 bond = assay: Micropillar-based measurement for CTLA4-CD80 tension; assay type: cell-based, human; conditions: cancer cells on micropillars, FIG. 3b
Procedure: FIG. 3: Micropillar-based measurement for CTLA4-CD80 tension. (a) A cancer cell is cultured on micropillars. The forces transmitted to the CTLA4-CD80 bond bend the micropillars. (b) Cancer cells can generate ˜2-fold higher stress than normal cells. […] (c) Cancer cells generate 4-fold higher stress transmitted to the CTLA4-CD80 bond compared to integrin-fibronectin bond. Scale bar: 5 μm.
To determine which of the two possibilities described above is likely to be true, we measured the forces CTLA4 exerts on the CD80 upon binding in both normal cells and breast cancer cells. Since trans-endocytosis requires high forces to physically remove CD80 from the cell membrane of the APC, followed by internalization, we tested whether cancer cells yield higher forces if trans-endocytosis is the unique mechanism used by cancer cells to achieve immunosuppression. We tested the human breast cancer cells MDA-MB-231 and their normal counterpart MCF10A cells, as well as the mouse breast cancer cells EO771 and their normal counterpart EPH4-EV, all of which express CTLA4 (FIG. 1). […] We also measured the forces transmitted via CTLA4 in Treg cells purified from mouse spleens. […] Moreover, when HEK293 cells, in which endogenous CTLA4 is not detected, were transfected with CTLA4 cDNA, only minimal level of forces and no trans-endocytosis of CD80 could be recorded (FIG. 2 panel c).

[1] = cited from earlier work

Cc1ccc2c(c1)C(=O)C1(O)CCN(c3ccccc3)C1=N2 (stereo not drawn) [Blebbistatin]
force generation transmitted through the CTLA4-CD80 bond (CTLA4-CD80 bond): does not inhibit

Ipilimumab
patients experiencing skin lesions, colitis, hepatitis, hypophysitis, thyroiditis and other immune-related events ([1]; Ipilimumab alone, 81 reports, 1265 patients, 22 clinical trials): 72%
patients experiencing adverse events ([1]; one study): 85%
